Legend:
[1] = biological target: α6β1 integrin (UniProt P23229); assay: solid-phase integrin binding assay: 511E8 coated on plate, 10 nM α6β1 integrin, A490
[2] = biological target: α6β1 integrin (UniProt P23229); assay: solid-phase integrin binding assay: 521E8 coated on plate, 10 nM α6β1 integrin, A490

UniProt P23229, sequence (P23229 other isoform, or with tags, fused parts or gaps limits assumed, chain 1 of 2): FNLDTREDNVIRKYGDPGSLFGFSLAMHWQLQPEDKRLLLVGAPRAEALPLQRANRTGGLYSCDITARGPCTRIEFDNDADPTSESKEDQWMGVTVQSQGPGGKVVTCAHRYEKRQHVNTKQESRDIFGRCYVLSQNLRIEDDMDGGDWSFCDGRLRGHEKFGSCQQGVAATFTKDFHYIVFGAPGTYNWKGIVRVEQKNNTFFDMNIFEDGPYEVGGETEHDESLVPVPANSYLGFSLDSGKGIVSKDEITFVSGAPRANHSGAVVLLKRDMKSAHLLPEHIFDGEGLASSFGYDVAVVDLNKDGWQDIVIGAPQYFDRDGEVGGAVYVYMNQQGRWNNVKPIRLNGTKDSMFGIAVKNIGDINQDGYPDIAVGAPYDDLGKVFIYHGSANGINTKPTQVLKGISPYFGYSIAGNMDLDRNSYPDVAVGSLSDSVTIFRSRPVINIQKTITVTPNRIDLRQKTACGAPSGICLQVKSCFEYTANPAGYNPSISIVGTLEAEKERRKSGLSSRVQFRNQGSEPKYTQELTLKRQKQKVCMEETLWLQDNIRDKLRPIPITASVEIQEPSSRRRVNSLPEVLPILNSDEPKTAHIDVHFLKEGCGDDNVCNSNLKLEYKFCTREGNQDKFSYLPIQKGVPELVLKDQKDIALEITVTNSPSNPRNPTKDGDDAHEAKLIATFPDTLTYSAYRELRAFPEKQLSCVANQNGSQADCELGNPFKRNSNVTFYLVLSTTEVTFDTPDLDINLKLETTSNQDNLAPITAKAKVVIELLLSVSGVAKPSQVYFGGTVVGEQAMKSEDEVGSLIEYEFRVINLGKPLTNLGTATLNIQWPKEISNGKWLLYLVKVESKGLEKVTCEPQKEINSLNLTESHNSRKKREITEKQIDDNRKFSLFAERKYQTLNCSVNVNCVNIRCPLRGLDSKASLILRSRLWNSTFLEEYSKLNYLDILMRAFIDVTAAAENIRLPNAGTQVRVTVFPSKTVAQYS
UniProt P23229, sequence (P05556 21-728 limits assumed, chain 2 of 2, further chain): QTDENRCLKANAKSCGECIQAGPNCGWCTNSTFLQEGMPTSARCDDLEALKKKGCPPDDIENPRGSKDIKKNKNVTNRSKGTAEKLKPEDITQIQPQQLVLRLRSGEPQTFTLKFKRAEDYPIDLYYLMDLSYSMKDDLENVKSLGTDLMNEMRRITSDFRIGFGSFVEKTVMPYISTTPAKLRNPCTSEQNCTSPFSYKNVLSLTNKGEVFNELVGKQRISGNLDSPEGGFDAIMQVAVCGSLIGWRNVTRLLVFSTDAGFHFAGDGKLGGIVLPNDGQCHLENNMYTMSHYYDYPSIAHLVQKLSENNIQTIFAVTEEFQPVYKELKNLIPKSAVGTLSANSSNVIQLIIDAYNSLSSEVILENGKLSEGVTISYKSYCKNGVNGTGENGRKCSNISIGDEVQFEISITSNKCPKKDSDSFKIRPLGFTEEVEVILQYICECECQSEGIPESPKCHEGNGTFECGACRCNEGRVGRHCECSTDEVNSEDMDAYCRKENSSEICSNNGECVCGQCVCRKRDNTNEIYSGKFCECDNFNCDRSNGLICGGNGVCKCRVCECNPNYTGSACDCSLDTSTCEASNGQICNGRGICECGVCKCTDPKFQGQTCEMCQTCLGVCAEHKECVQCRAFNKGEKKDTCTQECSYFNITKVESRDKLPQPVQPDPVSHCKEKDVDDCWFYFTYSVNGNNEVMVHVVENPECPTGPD

fold increase in integrin binding activity by addition of gelatin (500 µg/mL by context) to the coating solution, against 511E8 coated alone, at 2.7 nM 511E8 [1] [fold]	increase in integrin binding activity by addition of 50 µg/mL HSA to the coating solution, against 511E8 coated alone [1] [%]	increase in integrin binding activity by addition of 50 µg/mL gelatin to the coating solution, against 511E8 coated alone [1] [%]	increase in integrin binding activity by addition of HSA (500 µg/mL by context) to the coating solution, against 511E8 coated alone, at 2.7 nM 511E8 [1] [%]	increase in integrin binding activity by addition of 50 µg/mL HSA to the coating solution, against 521E8 coated alone [2] [%]	increase in integrin binding activity by addition of 50 µg/mL gelatin to the coating solution, against 521E8 coated alone [2] [%]	increase in integrin binding activity by addition of 500 µg/mL HSA to the coating solution, against 521E8 coated alone, at 2.7 nM 521E8 [2] [%]	increase in integrin binding activity by addition of gelatin (500 µg/mL by context) to the coating solution, against 521E8 coated alone, at 2.7 nM 521E8 [2] [%]	Substance
> 2	10	20 to 60	> 80	–	–	–	–	Human recombinant laminin 511E8 (from UniProt O15230 2534-3327; P07942 1561-1786; P11047 1362-1608) (ligand)
–	–	–	–	10 to 20	10 to 60	> 60	> 80	Human recombinant laminin 521E8 (from UniProt O15230 2534-3327; P55268 1573-1798; P11047 1362-1608) (ligand)

Reference: patent US20170159020A1
